The values below come from paper PMC11574045, “A cofactor-induced repressive type of transcription factor condensation can be induced by synthetic peptides to suppress tumorigenesis” (The EMBO Journal, 2024).

The subject of the assay is HEK293FT cells transfected with TF library. Put plainly: Screening of TF condensates based on fluorescent puncta. Type of assay: cell-based. To be noted: Figure 1B numerical data; TF library screen, one value per transcriptional factor. Put shortly: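 Puncta scoring used automated confocal imaging of fifty random fields per well, after anti-Flag or anti-GAL4 immunofluorescence (Alexa 488) in PFA-fixed cells. HEK293FT cells carried TF library plasmids delivered with PEI (1.6 μg/ml DNA). At 60 h they were switched for 12 h to glucose-containing or glucose-free medium.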

B1: PRKRA (protein, UniProt O75569 1-313, looked up)
Interferon-inducible …: MSQSRHRAEAPPLEREDSGTFSLGKMITAKPGKTPIQVLHEYGMKTKNIPVYECERSDVQIHVPTFTFRVTVGDITCTGEGTSKKLAKHRAAEAAINILKANASICFAVPDPLMPDPSKQPKNQLNPIGSLQELAIHHGWRLPEYTLSQEGGPAHKREYTTICRLESFMETGKGASKKQAKRNAAEKFLAKFSNISPENHISLTNVVGHSLGCTWHSLRNSPGEKINLLKRSLLSIPNTDYIQLLSEIAKEQGFNITYLDIDELSANGQYQCLAELSTSPITVCHGSGISCGNAQSDAAHNALQYLKIIAERK
Regarding B1, the “Z score of condensed fraction” value was found to be 0.8928.

B2: RBBP8 (protein, UniProt Q99708 1-897, looked up)
DNA endonuclease RBBP8: MNISGSSCGSPNSADTSSDFKDLWTKLKECHDREVQGLQVKVTKLKQERILDAQRLEEFFTKNQQLREQQKVLHETIKVLEDRLRAGLCDRCAVTEEHMRKKQQEFENIRQQNLKLITELMNERNTLQEENKKLSEQLQQKIENDQQHQAAELECEEDVIPDSPITAFSFSGVNRLRRKENPHVRYIEQTHTKLEHSVCANEMRKVSKSSTHPQHNPNENEILVADTYDQSQSPMAKAHGTSSYTPDKSSFNLATVVAETLGLGVQEESETQGPMSPLGDELYHCLEGNHKKQPFEESTRNTEDSLRFSDSTSKTPPQEELPTRVSSPVFGATSSIKSGLDLNTSLSPSLLQPGKKKHLKTLPFSNTCISRLEKTRSKSEDSALFTHHSLGSEVNKIIIQSSNKQILINKNISESLGEQNRTEYGKDSNTDKHLEPLKSLGGRTSKRKKTEEESEHEVSCPQASFDKENAFPFPMDNQFSMNGDCVMDKPLDLSDRFSAIQRQEKSQGSETSKNKFRQVTLYEALKTIPKGFSSSRKASDGNCTLPKDSPGEPCSQECIILQPLNKCSPDNKPSLQIKEENAVFKIPLRPRESLETENVLDDIKSAGSHEPIKIQTRSDHGGCELASVLQLNPCRTGKIKSLQNNQDVSFENIQWSIDPGADLSQYKMDVTVIDTKDGSQSKLGGETVDMDCTLVSETVLLKMKKQEQKGEKSSNEERKMNDSLEDMFDRTTHEEYESCLADSFSQAADEEEELSTATKKLHTHGDKQDKVKQKAFVEPYFKGDERETSLQNFPHIEVVRKKEERRKLLGHTCKECEIYYADMPAEEREKKLASCSRHRFRYIPPNTPENFWEVGFPSTQTCMERGYIKEDLDPCPRPKRRQPYNAIFSPKGKEQKT
Take B2: the “Z score of condensed fraction” value was 0.03488.

B3: BARHL2 (protein, UniProt Q9NY43 1-387, looked up)
BarH-like 2 homeobox protein: MTMEGASGSSFGIDTILSSASSGSPGMMNGDFRPLGEARTADFRSQATPSPCSEIDTVGTAPSSPISVTMEPPEPHLVADATQHHHHLHHSQQPPPPAAAPTQSLQPLPQQQQPLPPQQPPPPPPQQLGSAASAPRTSTSSFLIKDILGDSKPLAACAPYSTSVSSPHHTPKQESNAVHESFRPKLEQEDSKTKLDKREDSQSDIKCHGTKEEGDREITSSRESPPVRAKKPRKARTAFSDHQLNQLERSFERQKYLSVQDRMDLAAALNLTDTQVKTWYQNRRTKWKRQTAVGLELLAEAGNYSALQRMFPSPYFYHPSLLGSMDSTTAAAAAAAMYSSMYRTPPAPHPQLQRPLVPRVLIHGLGPGGQPALNPLSSPIPGTPHPR
Take B3: the “Z score of condensed fraction” value is recorded as 1.061.

B4: PROX1 (protein, UniProt P48437 1-737, looked up)
Prospero homeobox protein 1: MPDHDSTALLSRQTKRRRVDIGVKRTVGTASAFFAKARATFFSAMNPQGSEQDVEYSVVQHADGEKSNVLRKLLKRANSYEDAMMPFPGATIISQLLKNNMNKNGGTEPSFQASGLSSTGSEVHQEDICSNSSRDSPPECLSPFGRPTMSQFDVDRLCDEHLRAKRARVENIIRGMSHSPSVALRGNENEREMAPQSVSPRESYRENKRKQKLPQQQQQSFQQLVSARKEQKREERRQLKQQLEDMQKQLRQLQEKFYQVYDSTDSENDEDGDLSEDSMRSEILDARAQDSVGRSDNEMCELDPGQFIDRARALIREQEMAENKPKREGSNKERDHGPNSLQPEGKHLAETLKQELNTAMSQVVDTVVKVFSAKPSRQVPQVFPPLQIPQARFAVNGENHNFHTANQRLQCFGDVIIPNPLDTFGSVQMPSSTDQTEALPLVVRKNSSEQSASGPATGGHHQPLHQSPLSATAGFTTPSFRHPFPLPLMAYPFQSPLGAPSGSFSGKDRASPESLDLTRDTTSLRTKMSSHHLSHHPCSPAHPPSTAEGLSLSLIKSECGDLQDMSDISPYSGSAMQEGLSPNHLKKAKLMFFYTRYPSSNMLKTYFSDVKFNRCITSQLIKWFSNFREFYYIQMEKYARQAINDGVTSTEELSITRDCELYRALNMHYNKANDFEVPERFLEVAQITLREFFNAIIAGKDVDPSWKKAIYKVICKLDSEVPEIFKSPNCLQELLHE
For the molecule B4, the “Z score of condensed fraction” value is reported as 0.7937.

B5: PRDM8 (protein, UniProt Q9NQV8 1-689, looked up)
PR domain zinc finger protein …: MEDTGIQRGIWDGDAKAVQQCLTDIFTSVYTTCDIPENAIFGPCVLSHTSLYDSIAFIALKSTDKRTVPYIFRVDTSAANGSSEGLMWLRLVQSARDKEEQNLEAYIKNGQLFYRSLRRIAKDEELLVWYGKELTELLLLCPSRSHNKMNGSSPYTCLECSQRFQFEFPYVAHLRFRCPKRLHSADISPQDEQGGGVGTKDHGGGGGGGKDQQQQQQEAPLGPGPKFCKAGPLHHYPSPSPESSNPSAAAGGSSAKPSTDFHNLARELENSRGGSSCSPAQSLSSGSGSGGGGGHQEAELSPDGIATGGGKGKRKFPEEAAEGGGGAGLVGGRGRFVERPLPASKEDLVCTPQQYRASGSYFGLEENGRLFAPPSPETGEAKRSAFVEVKKAARAASLQEEGTADGAGVASEDQDAGGGGGSSTPAAASPVGAEKLLAPRPGGPLPSRLEGGSPARGSAFTSVPQLGSAGSTSGGGGTGAGAAGGAGGGQGAASDERKSAFSQPARSFSQLSPLVLGQKLGALEPCHPADGVGPTRLYPAAADPLAVKLQGAADLNGGCGSLPSGGGGLPKQSPFLYATAFWPKSSAAAAAAAAAAAAGPLQLQLPSALTLLPPSFTSLCLPAQNWCAKCNASFRMTSDLVYHMRSHHKKEYAMEPLVKRRREEKLKCPICNESFRERHHLSRHMTSHN
In the case of B5, the “Z score of condensed fraction” value is reported as -0.8362.

B6: RARB (protein, UniProt P10826 1-455, looked up)
Retinoic acid receptor beta: MTTSGHACPVPAVNGHMTHYPATPYPLLFPPVIGGLSLPPLHGLHGHPPPSGCSTPSPATIETQSTSSEELVPSPPSPLPPPRVYKPCFVCQDKSSGYHYGVSACEGCKGFFRRSIQKNMIYTCHRDKNCVINKVTRNRCQYCRLQKCFEVGMSKESVRNDRNKKKKETSKQECTESYEMTAELDDLTEKIRKAHQETFPSLCQLGKYTTNSSADHRVRLDLGLWDKFSELATKCIIKIVEFAKRLPGFTGLTIADQITLLKAACLDILILRICTRYTPEQDTMTFSDGLTLNRTQMHNAGFGPLTDLVFTFANQLLPLEMDDTETGLLSAICLICGDRQDLEEPTKVDKLQEPLLEALKIYIRKRRPSKPHMFPKILMKITDLRSISAKGAERVITLKMEIPGSMPPLIQEMLENSEGHEPLTPSSSGNTAEHSPSISPSSVENSGVSQSPLVQ
Turning to B6, the “Z score of condensed fraction” value was -0.7014.

B7: PRMT2 (protein, UniProt P55345 1-433, looked up)
Protein arginine …: MATSGDCPRSESQGEEPAECSEAGLLQEGVQPEEFVAIADYAATDETQLSFLRGEKILILRQTTADWWWGERAGCCGYIPANHVGKHVDEYDPEDTWQDEEYFGSYGTLKLHLEMLADQPRTTKYHSVILQNKESLTDKVILDVGCGTGIISLFCAHYARPRAVYAVEASEMAQHTGQLVLQNGFADIITVYQQKVEDVVLPEKVDVLVSEWMGTCLLFEFMIESILYARDAWLKEDGVIWPTMAALHLVPCSADKDYRSKVLFWDNAYEFNLSALKSLAVKEFFSKPKYNHILKPEDCLSEPCTILQLDMRTVQISDLETLRGELRFDIRKAGTLHGFTAWFSVHFQSLQEGQPPQVLSTGPFHPTTHWKQTLFMMDDPVPVHTGDVVTGSVVLQRNPVWRRHMSVALSWAVTSRQDPTSQKVGEKVFPIWR
For B7, the “Z score of condensed fraction” value amounted to 0.936.
